# Experimental data published in PMC7909649, “Eukaryotic translation initiation factor 5A and its posttranslational modifications play an important role in proliferation and potentially in differentiation of the human enteric protozoan parasite Entamoeba histolytica” (PLoS Pathogens, 2021).
# B1: Entamoeba histolytica deoxyhypusine synthase 2 (EhDHS2) with carboxyl-terminal S-tag, co-expressed with EhDHS1 (natural protein, UniProt C4M2N7 1-336, looked up)
# chain: MSITGEEFAKVTSKVLGESKEYKGEKCIGYDFDNGVDFNKVMEKMKYTGFQALNLGLCIEQVNEMRKNHAKIFLGMSSNIVSSGLREVIHYLVKNKFVDAIVVTAGGIEEDFIKTMHPTLLGDFYFKGKELYPNGYNRIGNLILPNSNYCEFEDWMDPLLLECLKEQNEHGVHWTPSKLVHKMGESINNESSIYYWAAKNNIPVFSPAITDGSIGDMIFFFSYKNEGLVLDLVQDVIKIDEMAFNAEKVGCLLVGAGIAKHHILNAMKRRGGCDYCAMLSTSIECDASDAGSEIAADRTKGFFKPECNPAKVIGDATILLPLIVASTFAQKEEPTK
# notes: Deoxyhypusine synthase isotype 2 (EhDHS2) of Entamoeba histolytica, EHI_006030, XP_653426; stop codon removed to fuse the C-terminal S-tag of pETDuet; also called S-tag DHS2; EHI_006030; source: E. coli BL21 (DE3), co-expressed with EhDHS1 from pETDuet-EhDHS1/2; in lysate and copurified on Ni2+-NTA; not shown: S-tag, C-terminal, kept
# Molecular target: T1, Entamoeba histolytica deoxyhypusine synthase 1 (EhDHS1) with amino-terminal His-tag, co-expressed with EhDHS2 (Entamoeba histolytica, UniProt C4LXB8 1-331)
# T1 construct: Deoxyhypusine synthase isotype 1 (EhDHS1) of Entamoeba histolytica, EHI_098350, XP_653614; the catalytically active isotype; also called His-tag DHS1; EHI_098350; source: E. coli BL21 (DE3), co-expressed with EhDHS2 from pETDuet-EhDHS1/2; in lysate and copurified on Ni2+-NTA; not shown: His tag, N-terminal, kept
# T1 sequence (looked up): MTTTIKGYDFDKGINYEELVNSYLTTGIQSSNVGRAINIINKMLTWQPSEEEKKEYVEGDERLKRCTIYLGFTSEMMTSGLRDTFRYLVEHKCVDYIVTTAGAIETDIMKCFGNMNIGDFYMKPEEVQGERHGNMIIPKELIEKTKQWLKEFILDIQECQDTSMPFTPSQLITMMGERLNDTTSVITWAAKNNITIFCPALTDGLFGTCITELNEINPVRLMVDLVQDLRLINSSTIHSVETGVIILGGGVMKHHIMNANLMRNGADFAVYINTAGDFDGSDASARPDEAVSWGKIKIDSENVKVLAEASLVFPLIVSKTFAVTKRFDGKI
# Test: pull-down; Co-expression of His-EhDHS1 and EhDHS2-S-tag in E. coli BL21 (DE3); lysate (50 mM Tris-HCl pH 8.0, 300 mM NaCl, 10 mM imidazole, 0.1% Triton X-100) on Ni2+-NTA resin, 1 hr at 4°C; washed with 10-50 mM imidazole, eluted with 100-300 mM imidazole; immunoblot with anti-His and anti-S tag antibodies
# Conditions: partners not purified
binder,measurement,value
B1,stoichiometry N,1 EhDHS1:EhDHS2
